# Reference: patent US20190194338A1 (Seagen, published 2019)
# Key:
# [1] = target: T1, human BCMA expressed on cells (NCI-H929, U266, JJN3, 293:BCMA) (human, UniProt Q02223 1-184); experiment: binding to JJN3 cells
# T1 construct: Endogenous BCMA on myeloma lines or full-length BCMA clone in HEK 293 cells; also called B-cell maturation antigen; CD269
# T1 sequence: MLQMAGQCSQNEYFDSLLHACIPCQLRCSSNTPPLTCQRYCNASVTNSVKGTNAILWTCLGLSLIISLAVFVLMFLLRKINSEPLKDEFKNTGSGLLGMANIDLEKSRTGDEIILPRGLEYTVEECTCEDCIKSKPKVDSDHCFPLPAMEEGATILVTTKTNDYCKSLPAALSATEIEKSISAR
# [2] = target: T2, FcγRIIIa (hCD16) on transfected CHO cells (human, UniProt P08637 17-254); experiment: competition with labelled h00 on CHO cells with FcγRIIIa
# T2 construct: whole, on cells; Also expressed on Jurkat effector cells in the signalling assay; also called human FcRIIIa
# [3] = target: T1, human BCMA expressed on cells …; experiment: binding to U266 cells
# T2 sequence (P08637 17-254): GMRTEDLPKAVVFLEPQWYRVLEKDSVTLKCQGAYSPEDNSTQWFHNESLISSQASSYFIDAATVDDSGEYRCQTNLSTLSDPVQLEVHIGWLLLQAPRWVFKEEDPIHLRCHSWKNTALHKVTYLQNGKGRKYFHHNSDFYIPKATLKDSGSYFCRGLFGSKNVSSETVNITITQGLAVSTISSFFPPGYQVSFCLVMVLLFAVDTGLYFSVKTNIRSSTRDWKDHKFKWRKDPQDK
Binder,Kd [1] [µM],binding result [2],Kd [3] [µM]
"cSG16.17 wild-type (antibody, domain: wild-type human IgG1 heavy chain constant domains; Rat VH and VL fused to human IgG1 and kappa constants; also called chimeric SG16.17; cSG16.17 G1 WT; not shown: human kappa light chain constant domain) heavy: not shown light: DIQMTQSPASLSASLGETVSIECLASEDISDDLAWYQQKSGKSPQVLVYTTSRLQDGVPSRFSGSGSGTRFSLKIIVMQPEDEADYFCQQTYKFPPTFGAGTRLDLKR",~0.015,binds,~0.01
"cSG16.17 mutant (antibody, name in EU numbering, domain: human IgG1 heavy chain constant domains; Positions of the Fc mutations are EU numbers, not positions on the UniProt entry; also called cSG16.17 S239D:A330L:I332E; chimeric SG16.17 IgG1 S239D, A330L, I332E; not shown: human kappa light chain constant domain) heavy: QVNLLQSRAALVKPGASVKLSCEASGYTFTDYYIHWVKQSHGKSLEWIGYINPNSGYTKYNENFKTKATMTADKSTNTAYVELSRLTSEDSATYFCTRYMWERVTGFFDFWGPGTKVTVSSASTKGPSVFPLAPSSKSTSGGTAALGCLVKDYFPEPVTVSWNSGALTSGVHTFPAVLQSSGLYSLSSVVTVPSSSLGTQTYICNVNHKPSNTKVDKKVEPKSCDKTHTCPPCPAPELLGGPDVFLFPPKPKDTLMISRTPEVTCVVVDVSHEDPEVKFNWYVDGVEVHNAKTKPREEQYNSTYRVVSVLTVLHQDWLNGKEYKCKVSNKALPLPEEKTISKAKGQPREPQVYTLPPSRDELTKNQVSLTCLVKGFYPSDIAVEWESNGQPENNYKTTPPVLDSDGSFFLYSKLTVDKSRWQQGNVFSCSVMHEALHNHYTQKSLSLSPGK light: DIQMTQSPASLSASLGETVSIECLASEDISDDLAWYQQKSGKSPQVLVYTTSRLQDGVPSRFSGSGSGTRFSLKIIVMQPEDEADYFCQQTYKFPPTFGAGTRLDLKR",,binds,
